Biological target: the molecule itself
Test: cryo-EM structure; TRPM2DR in digitonin, Ca2+-free buffer, incubated with 1 mM EDTA (ligand-free); refined with C4 (~4.3 A) and C2 (~4.5 A) symmetry

B1: Danio rerio (zebrafish) transient receptor potential melastatin 2 channel, full-length wild type (natural protein, UniProt A0A0R4IMY7 1-1470, looked up)
chain: MDEAALEPTLVQTLAVSTAKGGRYLSLSPSFQRCSLASWIKENIKKKECCFYVEDGREGICKCGYPKVQHCDEAIKPEDYMGEQWDKHRHVRETPTDAFGDISFGGLGQKTGKYVRVSSDTSCENLYQLMTEQWKLRSPNLLISVTGGAKNFYIKTHLKDKFRRGLIKVAQTTGAWILTGGTHAGVMKHVGMAVRDYTLSSGSMEGQIVVIGVAPWGVIHNRSTLIHPEGRFPAYYSLDEQGQGRLSCLDINHTHFLLVDDGTQGHYGVEIELRARLEKLISKLSLGNRESGVTIPVVCVVLDGGPGTLNTIYNSMLNHTPCVVLEGSGRLADVIAHVASVPVSKVTMALINRLLKRFFMQEYKNFTELQIIEWTKKIQDILRMPHLLTVFRIDEDKNYDVDVAILQALLKASRSDEHAGRHCWERQLELAVAWNRVDIAESEIFTEESQWTSSDLHPAMFSALVGDKPEFVRLLLENGVCVREFLEREETLCELYSHLPSCFFLRKLAKRVQGGKMRRGQEPLPGSRKVCLSHVSEEVRHLLGSFTQPLYIASRYKPTKDDVRLKVPSKGALDLPCSGEEWSADTVWDPGRDLFLWAVVQNNRELAEIGWEQCRDCIAAALAASKILRKLAQESGEDDSEEATEMLELANHYEKQAIGVFSECHSWDAQRAQKLLIRISPSWGRSTCLWLALEAHDKSFIAHSGVQALLTQIWCGELSVDNPHWKVLLCMIFFPLIYTGFLTFRRDEDIQRQAERTEQQKLAMESVFAGQSDGKIKRHLRGFSQKSELKPLNCSSRLMSFLKSPQVKFYWNIASYFGFLWLFAVVLMIDFQTSPSWRELLLYVWLTSLVCEEIRQLYHDFDGSGFRRKAKMYIKDLWNILDVLSIVLFIAGLICRLQASDTVFYIGKVILCIDFIIFCLRLMAIFSISRTLGPKIIIVRRMMLDLFFFMFLLSIWVVAYGVAKQGILIENEERLNWIIRGAVYEPYITIFGNFPTNIDNTLFDISSCSVNASDPLKPKCPMLNADNTPVFPEWLTIMMLCVYLLFANILLLNLLIAIFNYTFQEVQDNTDTIWKFQRYELIKEYHSRPALPPPFILLSHLILFIRGVFLRDLPQRHKNFRQELEQTEEEELLSWEAYMKDNYLASTRQDESQSVEHRIHDTAEKVGAMSELLEREQEMVSATMAKRLARLEEQVSESAKALRWIIDALKSQGCKSKVQPPLMRSKSSDRDDGDSSGQETDDEEAPHMFARQLQYPDSTVRRFPVPEEKVSWEVNFSPYQPPVYNQQDSSESDTSALDKHRNPGGRTGIRGKGALNTLGPNHILHPIFTRWRDAEHKVLEFLAVWEDAEKRWALLGGPAQPDEPLAQVLERILGKKLNEKTKTLLKAGEEVYKGYVDDSRNTDNAWVETSIITLHCDKNTPLMADLNHMVESSLSSHQPLQWREVSSDACRCSYQREALRQIAHHHNTYF
notes: TRPM2, zebrafish (Danio rerio), NCBI XP_009303266.1, full-length wild type from a codon-optimized synthetic gene; Homo-tetramer in all cryo-EM reconstructions; also called TRPM2DR; TRPM2; source: for the ADPR/Ca2+ sample reconstituted into amphipol PMAL-C8
- stoichiometry N: 4

Reference: article PMC6702222, “Visualizing structural transitions of ligand-dependent gating of the TRPM2 channel” (Nature Communications, 2019)
